Test results taken from article PMC5600724.

Target: recombinant Plasmodium vivax apical membrane antigen 1 ectodomain (rPvAMA1) (Plasmodium vivax)
Assay: ELISA; phage ELISA: wells coated with rPvAMA1 (100 ug/ml in 0.1 M NaHCO3, pH 8.6), blocked with BSA; ~10^9 phage in TBST, 2 h at room temperature; HRP anti-M13 antibody, ABTS, A405; fold = absorbance on target / absorbance on BSA-blocked well

TSVSYINNRHNL [PdV3 phage-displayed dodecapeptide]
fold of binding signal (A405 on rPvAMA1 over A405 on BSA): 3.1 fold

WHWSWWNPNQLT [PdV2 phage-displayed dodecapeptide]
fold of binding signal (A405 on rPvAMA1 over A405 on BSA): 3.5 fold
